From US20220411487A1 (Regeneron, published 2022)
Substitutions are numbered along the chain they refer to. Names may count otherwise.

T1: full length human TMPRSS6 on HEK293 cells (HEK293/hTMPRSS6) (human, UniProt Q8IU80 10-811)
T1 sequence (looked up): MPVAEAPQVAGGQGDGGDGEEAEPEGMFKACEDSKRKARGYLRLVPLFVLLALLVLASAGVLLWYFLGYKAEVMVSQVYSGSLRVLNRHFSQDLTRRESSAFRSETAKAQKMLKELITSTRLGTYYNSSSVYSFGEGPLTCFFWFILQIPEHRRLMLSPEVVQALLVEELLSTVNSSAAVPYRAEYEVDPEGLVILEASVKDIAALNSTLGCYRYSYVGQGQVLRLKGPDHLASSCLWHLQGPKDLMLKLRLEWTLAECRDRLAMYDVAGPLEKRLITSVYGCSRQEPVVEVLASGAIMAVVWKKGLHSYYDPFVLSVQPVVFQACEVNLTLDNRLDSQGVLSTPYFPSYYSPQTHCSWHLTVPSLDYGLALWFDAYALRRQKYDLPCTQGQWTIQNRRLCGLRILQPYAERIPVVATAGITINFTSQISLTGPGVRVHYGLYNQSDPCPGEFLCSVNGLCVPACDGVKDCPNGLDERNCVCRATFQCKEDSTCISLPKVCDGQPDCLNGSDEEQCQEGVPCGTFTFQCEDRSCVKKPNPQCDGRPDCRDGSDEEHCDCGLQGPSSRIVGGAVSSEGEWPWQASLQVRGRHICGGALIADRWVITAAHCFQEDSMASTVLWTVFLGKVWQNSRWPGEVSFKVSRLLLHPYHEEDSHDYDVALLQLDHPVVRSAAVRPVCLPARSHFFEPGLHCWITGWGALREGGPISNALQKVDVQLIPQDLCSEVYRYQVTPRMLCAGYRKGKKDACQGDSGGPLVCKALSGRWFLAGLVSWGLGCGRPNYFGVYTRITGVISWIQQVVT

T2: full length cynomolgous monkey TMPRSS6 on HEK293 cells (HEK293/mfTMPRSS6) (cynomolgous monkey/Macaca fascicularis, UniProt Q8IU80 10-811 (human entry))
T2 chain: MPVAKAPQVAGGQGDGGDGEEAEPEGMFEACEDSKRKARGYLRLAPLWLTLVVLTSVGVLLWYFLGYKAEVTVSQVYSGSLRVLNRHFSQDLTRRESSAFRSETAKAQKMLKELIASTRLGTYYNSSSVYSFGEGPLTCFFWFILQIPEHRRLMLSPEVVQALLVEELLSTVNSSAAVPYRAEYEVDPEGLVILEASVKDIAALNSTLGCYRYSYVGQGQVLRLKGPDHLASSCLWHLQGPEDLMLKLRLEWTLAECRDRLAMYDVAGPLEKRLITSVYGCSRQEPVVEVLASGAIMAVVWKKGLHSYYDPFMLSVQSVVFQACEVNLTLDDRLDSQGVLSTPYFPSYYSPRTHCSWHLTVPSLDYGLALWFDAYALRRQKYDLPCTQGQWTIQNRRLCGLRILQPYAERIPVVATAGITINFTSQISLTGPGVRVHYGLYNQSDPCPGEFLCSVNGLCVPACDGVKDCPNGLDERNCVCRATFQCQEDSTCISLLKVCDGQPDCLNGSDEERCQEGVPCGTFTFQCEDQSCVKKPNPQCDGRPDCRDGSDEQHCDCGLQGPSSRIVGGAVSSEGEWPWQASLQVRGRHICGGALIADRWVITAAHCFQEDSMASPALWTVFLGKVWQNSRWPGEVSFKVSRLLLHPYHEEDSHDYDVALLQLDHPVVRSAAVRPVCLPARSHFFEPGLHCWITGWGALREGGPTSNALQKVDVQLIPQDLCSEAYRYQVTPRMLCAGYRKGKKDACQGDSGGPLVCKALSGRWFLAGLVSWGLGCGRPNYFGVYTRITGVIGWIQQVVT

T3: full length mouse TMPRSS6 on HEK293 cells (HEK293/mTMPRSS6) (mouse, UniProt Q9DBI0 1-811)
T3 construct: line sorted for high expression
T3 sequence: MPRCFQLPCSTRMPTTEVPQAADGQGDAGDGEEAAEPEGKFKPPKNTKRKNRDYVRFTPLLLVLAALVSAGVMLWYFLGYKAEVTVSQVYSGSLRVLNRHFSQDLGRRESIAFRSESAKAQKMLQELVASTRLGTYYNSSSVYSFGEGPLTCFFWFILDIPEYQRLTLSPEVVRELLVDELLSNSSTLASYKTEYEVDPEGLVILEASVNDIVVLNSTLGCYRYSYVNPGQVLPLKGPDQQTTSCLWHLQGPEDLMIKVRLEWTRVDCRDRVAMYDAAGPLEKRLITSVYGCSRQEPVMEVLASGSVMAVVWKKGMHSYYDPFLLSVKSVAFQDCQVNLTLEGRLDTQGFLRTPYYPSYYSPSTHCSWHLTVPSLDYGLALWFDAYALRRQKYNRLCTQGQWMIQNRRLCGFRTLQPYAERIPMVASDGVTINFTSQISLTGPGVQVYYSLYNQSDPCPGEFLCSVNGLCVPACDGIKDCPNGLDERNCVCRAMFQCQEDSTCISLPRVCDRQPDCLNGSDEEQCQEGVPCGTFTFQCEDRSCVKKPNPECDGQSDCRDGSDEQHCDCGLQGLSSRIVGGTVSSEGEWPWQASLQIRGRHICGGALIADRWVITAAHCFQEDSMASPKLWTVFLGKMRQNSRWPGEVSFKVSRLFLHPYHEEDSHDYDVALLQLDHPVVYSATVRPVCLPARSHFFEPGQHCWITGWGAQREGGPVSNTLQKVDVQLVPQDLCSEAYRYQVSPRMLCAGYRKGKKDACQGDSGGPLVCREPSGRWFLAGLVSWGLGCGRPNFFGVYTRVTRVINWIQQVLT

B1: REGN7969 (antibody, human IgG4 S228P, kappa, V domains shown)
VH: QVQLVESGGGVVQPGRSLRLSCAASGFTFNNYGMHWVRQAPGKGLEWVAIISYDGSNEYYSDSVKGRFTISRDNSKNTLYLQMNSLRAEDTAVYYCARDQDYGGNLFHYWGQGTLVTVSS
VL: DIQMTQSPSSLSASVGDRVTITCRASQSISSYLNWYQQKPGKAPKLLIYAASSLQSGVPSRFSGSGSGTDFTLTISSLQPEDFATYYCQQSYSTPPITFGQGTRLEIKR
notes: fully human; human IgG4 Fc with hinge S108P; also called mAb37746
B2: REGN7971 (antibody, human IgG4 S228P, kappa, V domains shown)
VH: B1 VH with N30S, N31T, E58D, S61L, S85N, R98K, D101G, H108A, Y109S
VL: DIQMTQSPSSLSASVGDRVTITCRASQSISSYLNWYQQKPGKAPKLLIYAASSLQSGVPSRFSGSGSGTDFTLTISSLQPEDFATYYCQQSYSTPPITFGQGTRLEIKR
notes: fully human; human IgG4 Fc with hinge S108P; also called mAb37763
B3: REGN7999 (antibody, human IgG4 S228P, kappa, V domains shown)
VH: EVQLVESGGGLVQPGGSLRLSCAASGFTFSSYAMTWVRQAPGKGLEWVSAISGSDTSTYYADSVKGRFTISRDNSKNTLFLQMNSLRAEDTAVYYCAKHQDYDFSYYYSAMDVWGQGTTVTVSS
VL: DIQMTQSPSSLSASVGDRVIITCRASQDFNSWLAWYQQKPGKAPKLLIYAASSLQSGVPSRFSGSGSGTDFTLTISSLQPEDFATYYCQQTDSFPFTFGPGTKVDIKR
notes: fully human; human IgG4 Fc with hinge S108P; also called mAb41450
B4: REGN8023 (antibody, human IgG4 S228P, kappa, V domains shown)
VH: EVQLVESGGGLVKPGGSLRISCAASGFIFVDYAMHWVRQAPGKGLEWVSGISWNSGSIGYADSVKGRFTISRDNAKKSLYLQMSGLRPEDTALYYCVKSGFYYVRSYFDNWGQGTLVTVSS
VL: DIVMTQSPLSLPVTPGEPASISCRSSQSLLDSDDGNTYLDWYLRKPGQSPQLLIYTLSYRASGVPDRFSGSGSGTDFTLKISRVEADDVGVYYCMQRIEFPLTFGGGTKVEIKR
notes: fully human; human IgG4 Fc with hinge S108P; also called mAb37699
B5: REGN7974 (antibody, human IgG4 S228P, kappa, V domains shown)
VH: EVQLVESGGGLVQPGRSLRLSCIASGFNFGDYGMSWVRQAPGKGLEWVGFIRSKAYGGTTEYAASVKGRFTISRDDSKSIAYLQMNSLKTEDAAMYYCSRDYYDILTGYYGDYWGQGTLVTVSS
VL: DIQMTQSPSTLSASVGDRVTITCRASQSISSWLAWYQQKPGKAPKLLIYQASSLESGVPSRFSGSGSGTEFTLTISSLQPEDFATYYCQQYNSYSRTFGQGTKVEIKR
notes: fully human; human IgG4 Fc with hinge S108P; also called mAb41422
B6: REGN7977 (antibody, V domains shown)
VH: EVQLVESGGGLVKPGGSLRVSCAASGVTFSNVWMSWVRQVPGKGLEWVGRIKSKTDGGTTDYAAPVKGRFTISKDDSKNTLFLQMNSLKTEDTAVYYCTTETGDFWSGYYPRFQHWGQGTLVTVSS
VL: DIQMTQSPSSLSASVGDRVTITCRASQYISTYLNWYQQKPGKAPSLLIYAASSLQSGVPSRFSGSGSGTDFTLTISSLQPEDFASYSCQQSYSTPPYTFGQGTKLEIKR
notes: fully human; human IgG4 Fc with hinge S108P; also called mAb41465

Each binder was assayed against T1, full length human TMPRSS6 on HEK293 … (assay: cell-based or functional assay).

% inhibition, HEK293 bioassay, 30 min pre-incubation 25 C | IC50, HEK293 bioassay, 30 min pre-incubation 25 C | Binder
87% | 1.9 nM | B1
86% | 0.97 nM | B2
86% | 3 nM | B3
90% | 0.36 nM | B4
86% | 5.1 nM | B5
86% | 3.6 nM | B6

Target: T2, full length cynomolgous monkey TMPRSS6 …
Experiment: cell-based or functional assay

% inhibition, HEK293 bioassay, 30 min pre-incubation 25 C | IC50, HEK293 bioassay, 30 min pre-incubation 25 C | Binder
87% | 8.8 nM | B1
87% | 3.1 nM | B2
90% | 6.5 nM | B3
94% | 0.66 nM | B4
81% | 30 nM | B5
87% | 8.1 nM | B6

Target: T2, full length cynomolgous monkey TMPRSS6 …
Experiment: flow cytometry, HEK293 cells expressing target
Procedure: (§1) To assess the binding of anti-TMPRSS6 antibodies of the present disclosure to the receptor expressed on the cell surface, antibodies (including an IgG subclass control) were serially diluted in assay buffer (PBS without Ca⁺⁺ and Mg⁺⁺ containing 2% FBS) from 375 nM to 22.9 pM (plus a sample containing assay buffer alone without test molecule) and incubated with 0.5×10⁶ cells/well at 4° C. for 30 minutes in assay buffer. […] Cells were fixed using BD CytoFix™ (Becton Dickinson, #554655) and analyzed on either the IQue® or IQue®Plus Flow Cytometers (Intellicyt®). Unstained and secondary antibody alone controls were also tested for all cell lines. The results were analyzed using ForeCyt® (IntelliCyt®) software to determine the geometric means of fluorescence for viable cells and binding ratio was calculated by normalizing the geometric mean value of the test condition by the geometric mean value of the corresponding unstained cells.

EC50 | Max. Fold Binding | Binder
1.2 nM | 50 fold over unstained control | B1
1.5 nM | 75 fold over unstained control | B2
2 nM | 79 fold over unstained control | B3
0.94 nM | 52 fold over unstained control | B4
3.6 nM | 50 fold over unstained control | B5
2.4 nM | 78 fold over unstained control | B6

What follows are binders tested against T3, full length mouse TMPRSS6 on HEK293 … (assay: flow cytometry, HEK293 cells expressing target).
Procedure: as §1

Max. Fold Binding | EC50 | Binder
1 fold over unstained control |  | B1
1 fold over unstained control |  | B2
421 fold over unstained control | 4.5 nM | B3
296 fold over unstained control | 0.84 nM | B4
1 fold over unstained control |  | B5
125 fold over unstained control | 9.1 nM | B6
